Earlier results as cited in paper PMC10060530.

Assays:
NaV1.7 (Homo sapiens) = NaV1.7 (Homo sapiens) (UniProt Q15858)
[1] = biological target: NaV1.2 (Rattus norvegicus) (UniProt P04775)
[2] = biological target: NaV1.4 (Rattus norvegicus) (UniProt P15390)
UniProt P15390, sequence (P15390 whole entry): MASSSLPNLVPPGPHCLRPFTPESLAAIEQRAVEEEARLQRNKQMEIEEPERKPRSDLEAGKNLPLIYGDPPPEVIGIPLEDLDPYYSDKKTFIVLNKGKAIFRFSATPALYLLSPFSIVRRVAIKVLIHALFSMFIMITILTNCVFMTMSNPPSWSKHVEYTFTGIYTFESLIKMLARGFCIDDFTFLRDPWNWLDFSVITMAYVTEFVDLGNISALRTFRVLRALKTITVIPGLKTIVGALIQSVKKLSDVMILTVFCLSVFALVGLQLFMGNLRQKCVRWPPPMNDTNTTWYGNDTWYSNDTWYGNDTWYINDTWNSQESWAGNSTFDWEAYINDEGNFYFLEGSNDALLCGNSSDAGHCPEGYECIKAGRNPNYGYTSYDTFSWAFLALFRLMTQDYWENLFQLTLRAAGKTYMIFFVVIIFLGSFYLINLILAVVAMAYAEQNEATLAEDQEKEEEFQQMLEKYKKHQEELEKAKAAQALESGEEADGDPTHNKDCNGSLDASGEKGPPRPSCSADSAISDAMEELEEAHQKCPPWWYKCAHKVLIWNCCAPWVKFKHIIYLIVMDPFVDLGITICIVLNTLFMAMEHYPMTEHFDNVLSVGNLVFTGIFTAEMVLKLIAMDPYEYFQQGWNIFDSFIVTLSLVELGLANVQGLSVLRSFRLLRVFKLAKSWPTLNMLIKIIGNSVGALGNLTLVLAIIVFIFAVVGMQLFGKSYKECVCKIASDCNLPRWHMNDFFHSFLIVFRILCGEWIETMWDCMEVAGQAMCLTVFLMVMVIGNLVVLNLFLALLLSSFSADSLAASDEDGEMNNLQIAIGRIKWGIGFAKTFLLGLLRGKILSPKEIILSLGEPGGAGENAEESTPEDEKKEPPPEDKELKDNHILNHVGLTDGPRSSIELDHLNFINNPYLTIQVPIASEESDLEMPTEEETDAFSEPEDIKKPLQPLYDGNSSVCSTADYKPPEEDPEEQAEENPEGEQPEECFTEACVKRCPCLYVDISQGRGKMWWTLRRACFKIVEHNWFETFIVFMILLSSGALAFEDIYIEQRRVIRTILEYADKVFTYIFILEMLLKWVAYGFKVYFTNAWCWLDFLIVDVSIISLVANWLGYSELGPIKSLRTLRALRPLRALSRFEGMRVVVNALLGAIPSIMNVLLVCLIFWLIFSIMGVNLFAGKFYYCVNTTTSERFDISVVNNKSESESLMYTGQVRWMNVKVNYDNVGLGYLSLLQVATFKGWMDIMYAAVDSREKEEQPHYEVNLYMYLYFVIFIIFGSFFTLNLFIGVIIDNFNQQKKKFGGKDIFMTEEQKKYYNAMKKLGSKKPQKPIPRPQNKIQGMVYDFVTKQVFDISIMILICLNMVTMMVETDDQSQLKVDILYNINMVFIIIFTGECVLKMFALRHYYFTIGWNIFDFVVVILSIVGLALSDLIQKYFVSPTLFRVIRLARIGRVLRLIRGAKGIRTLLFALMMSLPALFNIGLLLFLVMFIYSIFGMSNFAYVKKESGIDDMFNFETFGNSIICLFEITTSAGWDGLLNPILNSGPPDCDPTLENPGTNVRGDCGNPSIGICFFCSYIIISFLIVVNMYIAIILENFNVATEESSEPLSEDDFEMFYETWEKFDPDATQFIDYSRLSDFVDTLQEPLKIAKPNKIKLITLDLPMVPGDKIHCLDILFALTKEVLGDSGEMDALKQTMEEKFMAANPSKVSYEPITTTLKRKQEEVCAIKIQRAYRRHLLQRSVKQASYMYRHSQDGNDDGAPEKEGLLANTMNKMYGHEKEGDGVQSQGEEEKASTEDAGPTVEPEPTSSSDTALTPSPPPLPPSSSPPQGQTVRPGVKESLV

UniProt P04775, sequence (P04775 whole entry): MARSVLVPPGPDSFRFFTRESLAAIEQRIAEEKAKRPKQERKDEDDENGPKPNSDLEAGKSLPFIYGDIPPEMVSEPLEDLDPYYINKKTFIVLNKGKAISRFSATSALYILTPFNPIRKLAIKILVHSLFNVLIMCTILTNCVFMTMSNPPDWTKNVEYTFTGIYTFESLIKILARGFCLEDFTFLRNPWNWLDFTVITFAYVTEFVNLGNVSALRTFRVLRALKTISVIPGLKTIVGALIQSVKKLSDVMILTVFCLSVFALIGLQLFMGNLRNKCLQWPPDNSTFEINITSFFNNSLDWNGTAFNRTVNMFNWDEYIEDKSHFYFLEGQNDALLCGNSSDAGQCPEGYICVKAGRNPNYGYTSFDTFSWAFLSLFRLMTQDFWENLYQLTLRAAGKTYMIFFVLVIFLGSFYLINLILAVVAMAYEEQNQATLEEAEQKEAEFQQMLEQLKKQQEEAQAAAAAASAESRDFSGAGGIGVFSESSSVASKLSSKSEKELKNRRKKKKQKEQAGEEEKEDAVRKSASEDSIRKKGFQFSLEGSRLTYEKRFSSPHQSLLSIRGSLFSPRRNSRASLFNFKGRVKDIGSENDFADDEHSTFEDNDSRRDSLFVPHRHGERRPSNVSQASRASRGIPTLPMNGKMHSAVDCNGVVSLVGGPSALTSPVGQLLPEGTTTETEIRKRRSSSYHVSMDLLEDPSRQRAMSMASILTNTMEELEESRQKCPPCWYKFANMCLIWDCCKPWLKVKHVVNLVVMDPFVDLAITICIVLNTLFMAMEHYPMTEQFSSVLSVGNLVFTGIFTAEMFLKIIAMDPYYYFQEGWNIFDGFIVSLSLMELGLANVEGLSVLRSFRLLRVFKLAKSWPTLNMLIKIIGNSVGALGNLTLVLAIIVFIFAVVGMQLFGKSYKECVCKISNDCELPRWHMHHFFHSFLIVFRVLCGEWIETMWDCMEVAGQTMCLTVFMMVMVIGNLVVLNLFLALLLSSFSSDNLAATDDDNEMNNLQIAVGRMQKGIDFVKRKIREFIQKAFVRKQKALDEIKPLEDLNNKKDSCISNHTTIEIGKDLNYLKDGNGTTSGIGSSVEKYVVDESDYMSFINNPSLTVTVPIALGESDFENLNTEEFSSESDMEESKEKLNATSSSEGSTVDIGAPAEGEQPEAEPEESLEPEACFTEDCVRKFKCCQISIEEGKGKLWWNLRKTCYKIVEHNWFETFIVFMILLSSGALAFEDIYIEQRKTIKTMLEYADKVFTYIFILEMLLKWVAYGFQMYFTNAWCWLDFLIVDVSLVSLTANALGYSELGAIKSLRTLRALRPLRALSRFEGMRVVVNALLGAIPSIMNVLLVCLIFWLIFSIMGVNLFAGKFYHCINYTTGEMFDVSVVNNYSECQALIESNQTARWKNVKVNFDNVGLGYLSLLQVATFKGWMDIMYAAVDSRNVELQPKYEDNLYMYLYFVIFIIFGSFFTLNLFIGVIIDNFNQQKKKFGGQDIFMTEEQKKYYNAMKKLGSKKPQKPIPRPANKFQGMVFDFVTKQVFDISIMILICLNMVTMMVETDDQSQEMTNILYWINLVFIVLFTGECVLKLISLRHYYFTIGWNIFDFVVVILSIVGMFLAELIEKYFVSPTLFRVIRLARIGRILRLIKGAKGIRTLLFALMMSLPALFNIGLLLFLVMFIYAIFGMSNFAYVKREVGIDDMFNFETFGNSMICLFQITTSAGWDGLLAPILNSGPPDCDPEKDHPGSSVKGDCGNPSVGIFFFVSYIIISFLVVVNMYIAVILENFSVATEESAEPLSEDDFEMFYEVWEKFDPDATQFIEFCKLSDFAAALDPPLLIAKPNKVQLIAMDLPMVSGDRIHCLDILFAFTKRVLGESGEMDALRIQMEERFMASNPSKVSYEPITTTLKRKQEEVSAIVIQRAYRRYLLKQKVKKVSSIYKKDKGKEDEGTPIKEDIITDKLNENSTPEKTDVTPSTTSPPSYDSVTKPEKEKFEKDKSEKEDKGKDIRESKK

mu-conotoxin KIIIA (from UniProt P0C195)
Kd (NaV1.7 (Homo sapiens)): 97 nM | Kd [1]: 5 nM | Kd [2]: 37 nM
